{"source": "patent US20160193292A1", "about": "(CURATORS OF THE UNIVERSITY OF MISSOURI, published 2016)", "binders": {"B1": {"name": "Plenty of SH3 domains (POSH) (other)", "chain": "MDESALLDLLECPVCLERLDASAKVLPCQHTFCKRCLLGIVGSRNELRCPECRTLVGSGVDELPSNILLVRLLDGIKQRPWKPGPGGGGGTTCTNTLRAQGSTVVNCGSKDLQSSQCGQQPRVQAWSPPVRGIPQLPCAKALYNYEGKEPGDLKFSKGDIIILRRQVDENWYHGEVSGVHGFFPTNFVQIIKPLPQPPPQCKALYDFEVKDKEADKDCLPFAKDDVLTVIRRVDENWAEGMLADKIGIFPISYVEFNSAAKQLIEWDKPPVPGVDTAECPSATAQSTSASKHPDTKKNTRKRHSFTSLTMANKSSQGSQNRHSMEISPPVLISSSNPTAAARISELSGLSCSAPSQVHISTTGLIVTPPPSSPVTTGPAFTFPSDVPYQAALGSMNPPLPPPPLLAATVLASTPSGATAAVAAAAAAAAAAGMGPRPVMGSSEQIAHLRPQTRPSVYVAIYPYTPRKEDELELRKGEMFLVFERCQDGWYKGTSMHTSKIGVFPGNYVAPVTRAVTNASQAKVSMSTAGQASRGVTMVSPSTAGGPTQKPQGNGVAGNPSVVPTAVVSAAHIQTSPQAKVLLHMSGQMTVNQARNAVRTVAAHSQERPTAAVTPIQVQNAACLGPASVGLPHHSLASQPLPPMAGPAAHGAAVSISRTNAPMACAAGASLASPNMTSAMLETEPSGRTVTILPGLPTSPESAASACGNSSAGKPDKDSKKEKKGLLKLLSGASTKRKPRVSPPASPTLDVELGAGEAPLQGAVGPELPLGGSHGRVGSCPTDGDGPVAAGTAALAQDAFHRKTSSLDSAVPIAPPPRQACSSLGPVMNEARPVVCERHRVVVSYPPQSEAELELKEGDIVFVHKKREDGWFKGTLQRNGKTGLFPGSFVENI", "notes": "Endogenous scaffold protein precipitated or detected in T-cell lysates (Co-IP, IP-FCM); also called Sh3Rf1"}, "B2": {"name": "JNK-interacting protein 1 (JIP-1) (other, UniProt Q9WVI9 1-707, looked up)", "chain": "MAERESGLGGGAASPPAASPFLGLHIASPPNFRLTHDISLEEFEDEDLSEITDECGISLQCKDTLSLRPPRAGLLSAGSSGSAGSRLQAEMLQMDLIDAAGDTPGAEDDEEEEDDELAAQRPGVGPPKAESNQDPAPRSQGQGPGTGSGDTYRPKRPTTLNLFPQVPRSQDTLNNNSLGKKHSWQDRVSRSSSPLKTGEQTPPHEHICLSDELPPQGSPVPTQDRGTSTDSPCRRSAATQMAPPSGPPATAPGGRGHSHRDRIHYQADVRLEATEEIYLTPVQRPPDPAEPTSTFMPPTESRMSVSSDPDPAAYSVTAGRPHPSISEEDEGFDCLSSPERAEPPGGGWRGSLGEPPPPPRASLSSDTSALSYDSVKYTLVVDEHAQLELVSLRPCFGDYSDESDSATVYDNCASASSPYESAIGEEYEEAPQPRPPTCLSEDSTPDEPDVHFSKKFLNVFMSGRSRSSSAESFGLFSCVINGEEHEQTHRAIFRFVPRHEDELELEVDDPLLVELQAEDYWYEAYNMRTGARGVFPAYYAIEVTKEPEHMAALAKNSDWIDQFRVKFLGSVQVPYHKGNDVLCAAMQKIATTRRLTVHFNPPSSCVLEISVRGVKIGVKADDALEAKGNKCSHFFQLKNISFCGYHPKNNKYFGFITKHPADHRFACHVFVSEDSTKALAESVGRAFQQFYKQFVEYTCPTEDIYLE", "notes": "Endogenous protein in T-cell lysates"}}, "key": {"Rac1": {"molecular_target": "Rac1 (UniProt P63001 1-189)", "assay": "Co-IP with antibodies against Rac1 and immunoblot, OT-I blasts re-stimulated with OVA-Tet/α-CD28", "method": "The beads were incubated with the lysates washed and probed with antibodies against the Co-IP target. The levels of associated molecules (secondary analyte/Co-IP target) were quantified relative to IP target (primary analyte/loading control). Specificity was determined by comparison to both isotype and negative control antibodies (FIG. 5 and FIG. 6). […] Shaded histogram represents the staining of an isotype control. […] These two negative controls were used to establish significance of shift above background.\nAssociated proteins were assessed by immunoblot."}, "[1]": {"molecular_target": "B2", "assay": "IP-FCM with α-JIP-1 beads in the presence of Tat-POSH"}, "[2]": {"molecular_target": "B1", "assay": "IP-FCM with α-POSH beads, lysates of stimulated OT-I T cells", "method": "Associated proteins were assessed by immunoblot. […] Data shown are representative of 6 independent experiments. […] Red histogram represents primary analyte and is shown to serve as a bead loading control."}, "[3]": {"molecular_target": "B1", "assay": "IP-FCM with α-POSH beads in the presence of Tat-POSH"}}, "data": [{"binder": "B1", "values": [{"measurement": "binding result", "setting": "Rac1", "result": "binds"}]}, {"binder": "JNK1 (enzyme, UniProt Q91Y86 1-384, looked up, Endogenous protein in T-cell lysates; also called 46KD JNK1) MSRSKRDNNFYSVEIGDSTFTVLKRYQNLKPIGSGAQGIVCAAYDAILERNVAIKKLSRPFQNQTHAKRAYRELVLMKCVNHKNIIGLLNVFTPQKSLEEFQDVYIVMELMDANLCQVIQMELDHERMSYLLYQMLCGIKHLHSAGIIHRDLKPSNIVVKSDCTLKILDFGLARTAGTSFMMTPYVVTRYYRAPEVILGMGYKENVDLWSVGCIMGEMVCHKILFPGRDYIDQWNKVIEQLGTPCPEFMKKLQPTVRTYVENRPKYAGYSFEKLFPDVLFPADSEHNKLKASQARDLLSKMLVIDASKRISVDEALQHPYINVWYDPSEAEAPPPKIPDKQLDEREHTIEEWKELIYKEVMDLEERTKNGVIRGQPSPLAQVQQ", "values": [{"measurement": "binding result", "setting": "[1]", "result": "binds"}, {"measurement": "binding result", "setting": "[2]", "result": "binds"}]}, {"binder": "MLK-3 (enzyme, UniProt Q80XI6 1-850, looked up, Endogenous protein in T-cell lysates; also called MAP3K protein MLK-3) MEPLKNLFLKSPLGSWNGSGSGGGGGTGGVRPEGSPKATAAYANPVWTALFDYEPNGQDELALRKGDRVEVLSRDAAISGDEGWWAGQVGGQVGIFPSNYVSRGGGPPPCEVASFQELRLEEVIGIGGFGKVYRGSWRGELVAVKAARQDPDEDISVTAESVRQEARLFAMLAHPNIIALKAVCLEEPNLCLVMEYAAGGPLSRALAGRRVPPHVLVNWAVQIARGMHYLHCEALVPVIHRDLKSNNILLLQPIEGDDMEHKTLKITDFGLAREWHKTTQMSAAGTYAWMAPEVIKASTFSKGSDVWSFGVLLWELLTGEVPYRGIDCLAVAYGVAVNKLTLPIPSTCPEPFAQLMADCWAQDPHRRPDFASILQQLEALEAQVLREMPRDSFHSMQEGWKREIQGLFDELRAKEKELLSREEELTRAAREQRSQAEQLRRREHLLAQWELEVFERELTLLLQQVDRERPHVRRRRGTFKRSKLRARDGGERISMPLDFKHRITVQASPGLDRRRNVFEVGAGDSPTFPRFRAIQLEPTESGQTWGRQSPRRLEDSSNGERRACWAWGPSSPKPGEAQNGRRRSRMDEATWYLDSDDSSPLGSPSTPPALNGNPPRPSPEPEEPRRAGPTERGNSSGTPKLIQRALLRGTALLASLGLGRDLQPPGGLSRERGESPTAPPPAQMPSPCPPELPSTPLIRLSQTTPDAHSSPTPGPLLLDLGVPSGQPSAKSPRREETRGRTVSPPPGISRSAPGTPGTPRSPPLGLISRPRPSPLRSRIDPWSFVSAGPRPSPLPSPQPAPRRAPWTLFPDSDPFWDSPPANPFRGGSQDCRTQTKDMGAQAPWAPEAGP", "values": [{"measurement": "binding result", "setting": "[3]", "result": "binds"}]}, {"binder": "B2", "values": [{"measurement": "binding result", "setting": "[2]", "result": "binds"}]}]}
